Data: paper PMC3943932 (Molecular cell, 2014)
Positions count from the first letter of the chain named. Numbers in names are those of the source. Where two headings read alike, the source gives them in different places. Values belong to the binder of their own block, whether it stands above or below them.

What was measured:
Test in all cases: pull-down
[1] = molecular target: T1, purified GST-PDK1 (UniProt Q15118 29-436)
[2] = molecular target: T1, purified GST-PDK1; remark: listed apart in the source
[3] = molecular target: T2, purified GST-PDP1 Y381F (UniProt Q9P0J1 72-537, Y381F)
T2 sequence (looked up): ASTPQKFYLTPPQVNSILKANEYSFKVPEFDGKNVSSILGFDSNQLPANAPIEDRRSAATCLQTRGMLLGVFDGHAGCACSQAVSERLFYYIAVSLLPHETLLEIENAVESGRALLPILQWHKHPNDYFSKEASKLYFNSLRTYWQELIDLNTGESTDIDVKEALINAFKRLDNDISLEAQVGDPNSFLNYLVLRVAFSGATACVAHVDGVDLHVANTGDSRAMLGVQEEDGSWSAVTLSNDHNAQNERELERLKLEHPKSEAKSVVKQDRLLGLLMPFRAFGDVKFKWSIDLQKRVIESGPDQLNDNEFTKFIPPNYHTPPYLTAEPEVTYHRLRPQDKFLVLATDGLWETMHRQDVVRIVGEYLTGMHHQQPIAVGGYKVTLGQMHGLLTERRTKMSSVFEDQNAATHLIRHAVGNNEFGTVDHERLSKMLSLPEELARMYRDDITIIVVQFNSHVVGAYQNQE

T1 sequence (Q15118 29-436): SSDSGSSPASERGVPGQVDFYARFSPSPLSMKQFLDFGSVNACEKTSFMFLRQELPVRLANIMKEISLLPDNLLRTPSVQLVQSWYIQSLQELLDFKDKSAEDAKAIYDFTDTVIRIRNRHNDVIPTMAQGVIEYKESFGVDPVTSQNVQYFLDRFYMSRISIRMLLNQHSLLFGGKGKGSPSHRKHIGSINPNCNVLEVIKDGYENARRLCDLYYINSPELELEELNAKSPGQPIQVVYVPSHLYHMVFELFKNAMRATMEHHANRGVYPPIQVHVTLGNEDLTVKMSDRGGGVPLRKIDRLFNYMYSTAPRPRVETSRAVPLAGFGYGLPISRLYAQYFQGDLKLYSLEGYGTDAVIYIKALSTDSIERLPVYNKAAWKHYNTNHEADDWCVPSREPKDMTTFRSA

binding result [1]: binds
B1: purified recombinant FLAG-PDHA1 K244R, incubated with NAM+TSA-treated H1299 cell lysates (enzyme, UniProt P08559 30-390, looked up)
chain: FANDATFEIKKCDLHRLEEGPPVTTVLTREDGLKYYRMMQTVRRMELKADQLYKQKIIRGFCHLCDGQEACCVGLEAGINPTDHLITAYRAHGFTFTRGLSVREILAELTGRKGGCAKGKGGSMHMYAKNFYGGNGIVGAQVPLGAGIALACKYNGKDEVCLTLYGDGAANQGQIFEAYNMAALWKLPCIFICENNRYGMGTSVERAAASTDYYRRGDFIPGLRVDGMDILCVREATRFAAAYCRSGKGPILMELQTYRYHGHSMSDPGVSYRTREEIQEVRSKSDPIMLLKDRMVNSNLASVEELKEIDVEVRKEIEDAAQFATADPEPPLEELGYHIYSSDPPFEVRGANQWIKFKSVS
modifications: lysine acetylation by the lysates (K321 is the site that the paper ties to PDK1 binding)

binding result [2]: binds
B2: purified recombinant FLAG-PDHA1 K321R (enzyme, UniProt P08559 30-390, looked up)
chain: B1 chain with R215K, K292R

binding result [3]: binds
B3: recombinant FLAG-ACAT1 (enzyme, UniProt P24752 34-427, looked up)
chain: VSKPTLKEVVIVSATRTPIGSFLGSLSLLPATKLGSIAIQGAIEKAGIPKEEVKEAYMGNVLQGGEGQAPTRQAVLGAGLPISTPCTTINKVCASGMKAIMMASQSLMCGHQDVMVAGGMESMSNVPYVMNRGSTPYGGVKLEDLIVKDGLTDVYNKIHMGSCAENTAKKLNIARNEQDAYAINSYTRSKAAWEAGKFGNEVIPVTVTVKGQPDVVVKEDEEYKRVDFSKVPKLKTVFQKENGTVTAANASTLNDGAAALVLMTADAAKRLNVTPLARIVAFADAAVEPIDFPIAPVYAASMVLKDVGLKKEDIAMWEVNEAFSLVVLANIKMLEIDPQKVNINGGAVSLGHPIGMSGARIVGHLTHALKQGEYGLASICNGGGGASAMLIQKL
